Paper PMC12114846, “Interleukin-15Rα-Sushi-Fc Fusion Protein Co-Hitchhikes Interleukin-15 and Pheophorbide A for Cancer Photoimmunotherapy” (Pharmaceutics, 2025)

Target: IL-15 (Homo sapiens), P40933
Conditions: Fc fusion; remark: other sources report otherwise

Sequence of IL-15 (Homo sapiens), P40933 (P40933 49-162): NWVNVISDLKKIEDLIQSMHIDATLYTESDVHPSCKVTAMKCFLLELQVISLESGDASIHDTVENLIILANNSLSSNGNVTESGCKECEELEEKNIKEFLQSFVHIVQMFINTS

B1: rIL-15Rα-Fc, Q13261 (protein)
chain: ITCPPPMSVEHADIWVKSYSLYSRERYICNSGFKRKAGTSSLTECVLNKATNVAHWTTPSLKCIRDPALVHQRPAPPSTVTTAGVTPQPESLSPSGKEPAASSPSSNNTAATTAAIVPGSQLMPSKSPSTGTTEISSHESSHGTPSQTTAKNWELTASASHQPPGVYPQGHSDTT
B1 gave a Kd of 0.115 nM.
